Measured values: the Human Domainome abundance scans (Beltran et al. 2025)

B1: Protein S100-G, residues 1 to 79; numbered along this chain, P02633 (parent)
chain: MSAKKSPEELKGIFEKYAAKEGDPNQLSKEELKLLLQTEFPSLLKGPSTLDELFEELDKNGDGEVSFEEFQVLVKKISQ
B2: Nuclear receptor subfamily 1 group D member 2, residues 103 to 171; numbered along this chain, Q14995 (parent)
chain: CKVCGDVASGFHYGVHACEGCKGFFRRSIQQNIQYKKCLKNENCSIMRMNRNRCQQCRFKKCLSVGMSR

Variants of: B1
Test: abundance fitness (aPCA) (normalised: wild type 0, dead -1); higher = more abundant; growth selection in yeast, the domain comes from the species named
Settings: Bos taurus

Abundance fitness: each site, then its substitutions
E8: W -0.243; G -0.049; P -0.163; Y -0.101; T -0.046; L -0.029; K -0.004; R -0.048; F -0.079; Q 0.033; D -0.125; A -0.054; M 0.014; H -0.148; N -0.11; I -0.029; S -0.106; C -0.361; V -0.051
S2: E -0.105; W -0.118; T 0.102; D 0.116; P -0.699; A -0.138; M 0.279; L -0.015; F 0.073; H -0.09; I 0.144; K 0.225; N 0.094; V 0.085; Q 0; G 0.039
P7: E 0.037; Y 0.063; H -0.067; D -0.119; K -0.062; N -0.056; W -0.09; S 0.02; G -0.121; F -0.066; R -0.079; M 0.058; V -0.058; L 0.013; C -0.021; T 0.066
L10: I -0.039; D -0.322; N -0.31; P -0.383; A -0.09; F -0.048; M 0.044; H -0.155; E -0.202; K -0.401; C -0.536
K4: D 0.092; L 0.051; M -0.023; E -0.154; H -0.004; T 0.06; C -0.222; A -0.337; G -0.223; V -0.145; W -0.343; F 0; N 0.067; S -0.005; P -0.097; Y 0.01; Q -0.06
K5: Y 0.025; I 0.045; M -0.017; F -0.015; R -0.154; N -0.063; C -0.252; A -0.037; T 0; V -0.126; W -0.575; P -0.253; S -0.03; E -0.105; Q -0.222; H -0.163
A3: Q -0.01; H -0.049; E -0.095; K -0.133; D 0.066; N 0.03; W -0.178; S -0.123; G -0.09; F 0.103; I 0.077; M 0.013; C 0.061; V 0.129; L 0.007; T -0.053; P -0.137
E9: I -0.111; R -0.179; S -0.073; L -0.073; F -0.128; K -0.061; Y -0.023; M -0.035; H -0.094; T -0.073; G -0.108; C -0.177; A -0.132; P -0.211; N -0.03; V -0.062; Q 0.055; D 0.063
S6: F -0.054; C -0.398; A -0.227; H -0.119; G -0.103; M -0.111; K -0.204; Q -0.076; L -0.15; R -0.232; I -0.121; D -0.071; N -0.161; V -0.203; T -0.03; W -0.372; E -0.159; Y -0.264
M1: H -1.42; S -0.368; R -0.631; W -0.667; V -0.313; G -0.267; P -1.34; L -0.378; Q -0.678; I 0.027; F -0.193; E -0.552; K -0.245; A -0.572; N -0.186; Y -0.501; D -0.392

Variants of: B2
Test: as above
Settings: Homo sapiens

Abundance fitness, by site and new letter:
S68: R -0.354; H -0.347; A 0.029; M -0.023; V -0.526; L -0.584; G -0.125; Q 0.314; I -0.111; F -0.561; D -0.049; E -0.087; K -0.01; C -0.097; P -0.768; T -0.018; N 0.186
F59: M -0.326; R -0.477; P -0.783; Q -0.536; G -0.395; W -0.255; E -0.433; S -0.809; T -0.512; Y -0.28; A -0.601; D -0.8; L 0.107; I -0.355
K60: M -0.141; N -0.056; I 0.406; V -0.249; L -0.097; E 0.033; F 0.044; W 0.021; S -0.284; A -0.009; G -0.428
L63: Q -0.329; K -0.8; I 0.268; M -0.914; V -0.502; R -0.991; P -0.789; N -0.911; G -0.92; T -0.523; E -0.121; A -0.071
V65: Y -0.234; T -0.536; A -0.306; S -0.291; L -0.708; W -1.02; R -0.895; M -0.012; I -0.308; F -0.739; K -0.851; P -0.814; C -0.571; D -0.601; Q -0.733
G66: L -0.459; P -0.802; F -0.562; M -0.574; V -0.798; D -0.866
C57: R -1.21; S -0.836; V -1.01; Q -0.59
C62: Y -0.492; P -0.843; L -0.875; E -0.456; R -0.667; N -0.812; V -0.665; A -0.015; S -0.757; M -0.336; T -0.948; G -0.857
S64: F -0.545; T -0.002; L 0.044; R -0.334; I -0.911; D -0.051; C -0.469; G -0.481; H -0.449; Q 0.12; P -0.857; K 0.236; N -0.36; A -0.048; E 0.346; M -0.072; Y -0.512; V -0.107
R69: C -0.013; G 0.112; Q 0.07; P 0.28; F 0.483; V 0.327; Y -0.083; W 0.288; A 0.233; T 0.451; E 0.008; L 0.143; S 0.176; D -0.404; M 0.318
R58: F 0.109; C 0.417; T -0.097; H 0.466; A -0.272; S -0.877; W 0.565; E -0.474; Y -0.055; Q -0.046; M 0.036; K -0.497; P -0.698; N -0.759; L 0.278; V -0.903; I -0.806
K61: E -0.414; W -0.746; G -0.385; H -0.681; V -0.886; T -0.652; C -0.717; M -0.776; Y -0.547; L -0.422; S -0.769; Q -0.647; P -0.905; F -0.608; A -0.328
M67: H -0.973; W -0.415; D 0.029; L -0.817; V -0.794; Y -0.558; R -0.241; G -0.744; A -0.574; S -0.925; K -0.688; T -0.822; E -0.483
